{"source": "paper PMC8168016", "key": {"[1]": {"biological_target": "AncSR1-LBD 184E (dimerization-interface mutant with a non-historical charge-repulsion mutation)", "assay": "native MS"}, "[2]": {"biological_target": "AncSR1-LBD L180F/A181Y/M185K (dimerization-interface mutant with three historical substitutions)", "assay": "native MS"}, "[3]": {"biological_target": "AncSR1-LBD fused to the CTE of AncSR2-LBD", "assay": "SEC-MALS"}}}
{"substance": "AncSR1-LBD 184E (dimerization-interface mutant with a non-historical charge-repulsion mutation) (domain or fragment)", "values": [{"measurement": "fold increase of Kd against AncSR1-LBD", "setting": "[1]", "value": "> 20", "unit": "fold"}]}
{"substance": "AncSR1-LBD L180F/A181Y/M185K (dimerization-interface mutant with three historical substitutions) (domain or fragment)", "values": [{"measurement": "fold increase of Kd against AncSR1-LBD", "setting": "[2]", "value": "> 20", "unit": "fold"}]}
{"substance": "AncSR1-LBD fused to the CTE of AncSR2-LBD (domain or fragment)", "values": [{"measurement": "stoichiometry N", "setting": "[3]", "value": 2}]}
